According to PMC6391071, “Mechanisms of opening and closing of the bacterial replicative helicase” (eLife, 2018):
“And” between values parts separate entries of the source, which are not always exact repeats. Equal entries are not always repeated.

B3: Aquifex aeolicus DnaB helicase (enzyme)
chain: LPCDESAERAVLGSMLEDPENIPLVLEYLKEEDFCIDEHKLLFRVLTNLWSEYGNKLDFVLIKDHLEKKNLLQKIPIDWLEELYEEAVSPDTLEEVCKIVKQRSAQRAIIQLGIELIHKGKENKDFHTLIEEAQSRIFSIAESATSTQFYHVKDVAEEVIELIYKFKSSDRLVTGLPSGFTELDLKTTGFHPGDLIILAARPGMGKTAFMLSIIYNLAKDEGKPSAVFSLEMSKEQLVMRLLSMMSEVPLFKIRSGSISNEDLKKLEASAIELAKYDIYLDDTPALTTTDLRIRARKLRKEKEVEFVAVDYLQLLRPPVRKSSRQEEVAEVSRNLKALAKELHIPVMALAQLSREVEKRSDKRPQLADLRESGQIEQDADLILFLHRPEYYKKKPNPEEQGIAEVIIAKQRQGPTDIVKLAFIKEYTKFANLEA
notes: Aquifex aeolicus DnaB replicative helicase; also called AA DnaB; A. aeolicus DnaB; source: E. coli Rosetta (pET24a-AA-DnaB); cells co-lysed with cells expressing AA DnaC; purified as the BC complex (65°C step, heparin sepharose, Q-sepharose, Superdex-200)

Columns and labels:
[1] = molecular target: T1, Escherichia coli DnaB helicase (Escherichia coli, UniProt P0ACB0 1-471); assay: native MS; BP complex at 5 µM in 450 mM ammonium acetate pH 7.5, 0.5 mM magnesium acetate, 0.01% Tween-20; incubated with the Oriλ-derived 43-mer ssDNA at 1:1.2 for 30 min on ice; details: both partners purified
T1 construct: E. coli DnaB replicative helicase, full length, untagged; Hexamer; The 6BBM model holds residues 17-471 at most; chain A lacks 167-203; also called EcDnaB; E. coli DnaB; source: E. coli BL21(DE3), co-expressed with λP (pET24-DnaB-EC); purified as the BP complex (ammonium sulfate, Q-sepharose, heparin sepharose, methyl HIC)
T1 sequence (P0ACB0 whole entry, the tested form may be a part): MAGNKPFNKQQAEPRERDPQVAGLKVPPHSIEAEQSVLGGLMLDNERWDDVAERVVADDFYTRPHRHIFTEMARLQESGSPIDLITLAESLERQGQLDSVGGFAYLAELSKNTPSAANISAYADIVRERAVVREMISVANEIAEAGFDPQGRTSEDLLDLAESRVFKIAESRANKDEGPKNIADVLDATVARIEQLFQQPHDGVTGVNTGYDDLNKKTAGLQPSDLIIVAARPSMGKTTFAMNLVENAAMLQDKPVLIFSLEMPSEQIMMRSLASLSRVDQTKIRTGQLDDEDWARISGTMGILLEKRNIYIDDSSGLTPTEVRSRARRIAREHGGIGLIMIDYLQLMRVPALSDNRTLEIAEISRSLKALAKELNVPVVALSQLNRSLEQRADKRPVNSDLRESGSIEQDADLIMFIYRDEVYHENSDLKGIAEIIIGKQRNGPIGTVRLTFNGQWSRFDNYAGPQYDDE

[2] = molecular target: T1, Escherichia coli DnaB helicase; assay: native MS; co-purified complex at 5 µM, buffer-exchanged into 450 mM ammonium acetate pH 7.5, 0.5 mM magnesium acetate, 0.01% Tween-20; no ssDNA; details: both partners purified
[3] = molecular target: T1, Escherichia coli DnaB helicase; assay: native MS; BP sample in 500 mM ammonium acetate, 0.01% Tween-20, without magnesium acetate; details: both partners purified
[4] = molecular target: B3; assay: native MS; co-purified complex at 5 µM, buffer-exchanged into 450 mM ammonium acetate pH 7.5, 0.5 mM magnesium acetate, 0.01% Tween-20; no ssDNA; details: both partners purified
[5] = molecular target: the molecule itself; assay: as above
[6] = molecular target: T2, DnaB replicative helicase;lambda P helicase loader (Escherichia coli;bacteriophage lambda, UniProt P0ACB0;P03689 1-471;1-233, |); assay: native MS; B6P5 with one ssDNA, 459.5 kDa; no nucleotide bound; 450 mM ammonium acetate pH 7.5, 0.5 mM magnesium acetate, 0.01% Tween-20; 5 uM protein, protein:ssDNA 1:1.2, 30 min on ice; details: protein: recombinant;recombinant; tags: untagged;; chain copies: 6;5; single strand
T2 sequence (P0ACB0 whole entry, one chain of several): as the sequence (P0ACB0 whole entry, the tested form may be a part) above

[7] = molecular target: T2, DnaB replicative helicase;lambda P …; assay: native MS; no protein-DNA complex; 450 mM ammonium acetate pH 7.5, 0.5 mM magnesium acetate, 0.01% Tween-20; 5 uM protein, protein:ssDNA 1:1.2, 30 min on ice; details: protein: recombinant;recombinant; tags: untagged;; chain copies: 6;5; single strand

B1: bacteriophage λP helicase loader (natural protein, UniProt P03689 1-233, looked up)
chain: MKNIAAQMVNFDREQMRRIANNMPEQYDEKPQVQQVAQIINGVFSQLLATFPASLANRDQNEVNEIRRQWVLAFRENGITTMEQVNAGMRVARRQNRPFLPSPGQFVAWCREEASVTAGLPNVSELVDMVYEYCRKRGLYPDAESYPWKSNAHYWLVTNLYQNMRANALTDAELRRKAADELVHMTARINRGEAIPEPVKQLPVMGGRPLNRAQALAKIAEIKAKFGLKGASV
notes: bacteriophage λ replication protein P (helicase loader), full length, 233 residues, 26,518 Da, untagged; Five copies stand in the predominant complex with the DnaB hexamer; The 6BBM model of λP has no side chains and covers about residues 109-233; also called lambdaP; LP; source: E. coli BL21(DE3), co-expressed with DnaB (pCDFDuet-λP); purified as the BP complex (ammonium sulfate, Q-sepharose, …)
- stoichiometry N [1]: 5 λP per DnaB hexamer
- stoichiometry N [2]: 5 λP per DnaB hexamer and 6 λP per DnaB hexamer and 4 λP per DnaB hexamer
- stoichiometry N [3]: 5 λP per DnaB hexamer and 6 λP per DnaB hexamer and 4 λP per DnaB hexamer

B2: Aquifex aeolicus DnaC helicase loader (natural protein, UniProt O67056 1-235, looked up)
chain: MQDTATCSICQGTGFVKTEDNKVRLCECRFKKRDVNRELNIPKRYWNANLDTYHPKNVSQNRALLTIRVFVHNFNPEEGKGLTFVGSPGVGKTHLAVATLKAIYEKKGIRGYFFDTKDLIFRLKHLMDEGKDTKFLKTVLNSPVLVLDDLGSERLSDWQRELISYIITYRYNNLKSTIITTNYSLQREEESSVRISADLASRLGENVVSKIYEMNELLVIKGSDLRKSKKLSTPS
notes: Aquifex aeolicus DnaC helicase loader; Six copies stand in the complex with the DnaB hexamer; also called AA DnaC; A. aeolicus DnaC; source: E. coli Rosetta (pET24a-AA-DnaC); cells co-lysed with cells expressing AA DnaB; purified as the BC complex (65°C step, heparin sepharose, Q-sepharose, Superdex-200)
- stoichiometry N [4]: 6 DnaC per DnaB hexamer

Binder: B3
- stoichiometry N [5]: 6 subunits

Binder: TGACGAATAATCTTTTCTTTTTTCTTTTGTAATAGTGTCTTTT (ssDNA) [ori-lambda DUE 43-mer]
- binding result [6]: binds

Binder: TTTTTTTTTTTTTTTTTTTTTTTTT (ssDNA) [T25]
- binding result [7]: no binding

Binder: TTTTTTTTTTTTTTTTTTTTTTTTTTTTTTTTTTT (ssDNA) [T35]
- binding result [7]: no binding

Binder: TTTTTTTTTTTTTTTTTTTTTTTTTTTTTTTTTTTTTTTTTTTTT (ssDNA) [T45]
- binding result [7]: no binding
